Test: yeast display, Sf9 membrane polyspecificity reagent, FACS + sequencing; frameworks hold sequencing errors
How it was run: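 Galactose induction of a Saccharomyces cerevisiae BJ5465 synthetic nanobody display library ran 36–48 hours. The cells were then stained for 1 hour at 4 °C with 10% biotinylated, detergent-solubilized Sf9 membrane reagent, pulled down on streptavidin microbeads and FACS-sorted into low and high (top ~1%) gates on expression and reagent-binding fluorescence. Labels for polyreactivity follow the gate of origin.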

Sequence | polyreactivity (PSR sort gate)
QVQLVESGGGLVQAGGSLRISCAASGYIFFGNAMGWYRQAPGKERELVAAIRGRGTSTYYADSVKGRFTISRDNAKNTVYLQMNSLKPEDTAVYYFAADVVRSNFYGTFLYDYDYWGQCTQVTVSS | low polyreactivity
QVQLQESGGGLVQAGGSLRLSCAASGNIVDADIMGWYRQAPGKERELVASITDGGSTNYADSVKGRFTISRDNAKNTVYLQMNSLKPEDTAVYYCAAIAYPDIPTYFDYDSEYFYWGQGTQVTVSS | low polyreactivity
QVQLVESGGGLVNAGGSLRLSCAASGRTFRNYAMGWYRQAPGKERELVAANSSGGSTNYADSVKGRFTISRDNAKNTVYLQMNSLKPEDTAVYFCAARQRAYYGPGFDYWGQGTQVTVSS | low polyreactivity
QVQLVESGGGLVQAGGSLRLSCAASGRIFWVYAMGWYRQAPGKERELVAAISLSGGLTYYADSVKGRFTITRDNAKNTVYLQMNSLKPEDTAVYYCNAVYPKRGGGRIVDYWGEGTQVTVSS | high polyreactivity
QVQLVESGGGLVQAGGSLRLSCAASGRIFRYYAMGGYRQAPGKERELVATISRSGGSTFYAYSVKGRFTISRDNAKNTVYLQMNSLKPEDTAVYYCNARYQTGGYGYWGQGTQVTVSS | high polyreactivity
QVKLVESGGGLVQAGGSLRLSCAASGSIFWYNAMGWYRQAPGKERELVAAIRWRGGSTYYADSVNGRFTISRDNAKNTVYLQMNSLKPEDTAVYYCAAQVYVSQMYTSYYYWGQGTQVTVSS | high polyreactivity
QVQLVESGGGLVQAGGRLRLSCAASGSISASYAMGWSRQAPGKERELVAAITSGGSTYYADSVKGRFTFSRDNAKNTVYFQMNSLKPEETAVYYCAKRPKRTYYPHIGYDYWGQGTQVTVSS | low polyreactivity
QVQLVESGGGLVQAGGSLRLSCAASGSTFFGYAMGWYRQAPGKERELVAAIRYNGGRTYYADSVKGRFTISRDNAKNTVYLQMNSLKPEDTAVYYCAAYISYSRTYYYWGQGTQVTVSS | low polyreactivity
QVQVVESGGGLVQAGGSLRLSCAASGSIFPFYVMGWYRQAPGKEREFVATISSRGGSTYYADSVKGRFTISRDNAKNTVYLQMNSLKPEDTAVYYCAAGWYRNDWGQRLHTYYYWGQGTQVTVSS | high polyreactivity
QVQLVESGGGLVQAGGSLRLSCAASGFTSAPNAMGWYRQAPGKERELVAAITSSTGRTRYADSVKGRFTISRDNAKNTVYLQMNSLKPEDTAVYYCAVKLLFRGTYEYWGQGTQVTVSS | low polyreactivity
QVQLVESGGGLVQAGGSLRLSCAASGGTFAFNAMGWYRQAPGKERELVATIRYSGGSTYADSVKGRFTISRDNAKNTVYLQMNSLKPEDTAVYYCAASGYYIFSWRYDYWGQGTQVTVSS | low polyreactivity
QVQLVESGGGLVQAGGSLRLSCAASGRIFWSYAMGWYRQAPGKERELVAAITWRTGRTYYADSVKGRFTISRDNAKNTVYLQMNSLKPEDTAVYYCAAEGYLWGQSYNGLNYDSWGQGTQVTVSS | low polyreactivity
QVQLVESGGGLVQAGGSLRLSCAASGLIFAKYAMGWYRQAPGKERELVAAITSSGAGTYYADSVKGRFTISRDNAKNTVYLQMNCLKPEDTAVYYCATGPDPKYDYWGQGTQVTVSS | high polyreactivity
QVKLVESGGGLVQAGGSLRISCAASGRTFGYNAMGWYRQAPGKERELVAGISGRTASTYYADSVKGRFTISRDNAKNTVYLQMNSLKPVDTEVYYCATQFGSIYRYDYWGQGTEVTVSS | high polyreactivity
QVQLVESGGGLVQAGGSLRLSCAASGSTFYYYAMGWYRQAPGKERELVAAIDRDDRTNYADSVKGRFTISRDNAKNTVYLQMNSLKPEDTAVYNSAADSSERRLLDFDYWGQGTQVTVSS | low polyreactivity
QVQLVETGGGLVQAGGSLRLSCAASGSIFQGYAMGWYRQAPGKERELVAGITSSGGSTHYADSVKGRFTISRDNAKNTVYLQMNSLKPEDTAVYDYWGQGTQVTVSS | low polyreactivity
QVQLVESGGGLVQAGGSLRLSCAASGFSFYYNTMGWYRQAPWTERELVAAITRSFGSTYYADSVKGSFTIARDHAQNTVYVQMNSLKPEDTAVYFCAARAYYFPKLPADYYWGQGTQVSVSS | high polyreactivity
QVQLVESGGGLVQAGGSLRLRCAASGSTFQTYAMGWYRQAPGKERELVAAITSGGATNYADSVKGRFTISRDNAKNTVFLQMNFLTPEVTAVYYCAVRLIDQTSDHRLQYDYWGQGTQVTVSS | low polyreactivity
QVQLVESGGGLVQAGGSLRLSCAASGFTFTGYAMGWYRQAPGKERELVAAISQSGGSTYADSVKGRFTISRDNAKNTVYLQMNSLKPEDTAVYYCNAATHGPFDYWGQGTQVTVSS | low polyreactivity
QVQRVESGGGLGQAGGSLRLSCDASGRTFSGNTMGWYRQAPVKERELVAVINSGTRTYYADSVKGRFTISRDNAKNTVYLQMYSLKPEDTAGYYCATRCKSPSSKYGYWGQGTQVNVSS | high polyreactivity
QVQLVESGGGLVQAGGSLRIRCAASGRIFDTYAMGWYRQAPGKEREFVATISWDSASTYYADSVKGRFTISRDNAKNTVYLQMNSLKPEDTAVDYCAAGGSSSWAFNYWGQGTQLTVSS | low polyreactivity
